Source: patent US11059842B2, “Monosaccharide amine and 3-nitro-2-phenyl-2H-chromene based inhibitors of glucose kinases” (UNIVERSITY OF SOUTH CAROLINA, priority 2019, dated 2021)

Experiments:
[1] = substrate: O=C[C@H](O)[C@@H](O)[C@H](O)[C@H](O)CO; test: HsHxKIV Michaelis-Menten kinetics; format: biochemical, Homo sapiens; details: other: substrate; triplicate runs
Description: (§1) D-Glucose was also tested as a control with alternative substrates. The protein expression work for TcGlcK and HsHxKIV were each made possible through the E. coli strain BL21(DE3) system. Purification of each enzyme was performed through cobalt-NTA chromatography followed by size-exclusion chromatography; assessment of purity was performed by SDS-PAGE. In enzymatic assays, a time-optimum (TOPT) was determined to be 120 seconds for TcGlcK and 600 seconds for HsHxKIV; all assays were run at room temperature. A general reaction scheme included a first reaction in which the monosaccharide, ATP, and Mg^2+ react with the enzyme, e.g., TcGlcK, forming a hexose-phosphate and ADP. In a second reaction, hexose-phosphate with the assistance of glucose-6-phosphate dehydrogenase (G6PDH) and NADP^+ was converted to the lactone form of the hexose-phosphate and NADPH. Fluorescence of NADPH was monitored using a fluorescence microplate reader with […] wavelengths of 340 nm and 485 nm, respectively.
(§2) FIG. 4 and FIG. 5 present typical Michaelis-Menten enzyme kinetic plots for D-glucose. […] Michaelis-Menten constant (KM) values, which were used as the set final assay concentrations of substrates D-glucose and ATP for the primary screens, were determined for both TcGlcK and HsHxKIV in triplicate runs. […]

[2] = substrate: O=C[C@H](O)[C@@H](O)[C@H](O)[C@H](O)CO; test: TcGlcK Michaelis-Menten kinetics and substrate range; format: biochemical, Trypanosoma cruzi; details: other: substrate; triplicate runs
Description: as §1, with “In a second reaction, hexose-phosphate with the assistance of glucose-6-phosphate dehydrogenase (G6PDH) and NADP^+ was converted to the lactone form of the hexose-phosphate and NADPH.” left out
as §2
All phosphorylated hexoses were shown getting converted into their corresponding products by G6PDH, in abundant quantities through a 30-second time frame. […]

Row | Protein | Km [1] | Km [2]
1 | HsHxKIV (Homo sapiens) (protein) MLDDRARMEAAKKEKVEQILAEFQLQEEDLKKVMRRMQKEMDRGLRLETHEEASVKMLPTYVRSTPEGSEVGDFLSLDLGGTNFRVMLVKVGEGEEGQWSVKTKHQMYSIPEDAMTGTAEMLFDYISECISDFLDKHQMKHKKLPLGFTFSFPVRHEDIDKGILLNWTKGFKASGAEGNNVVGLLRDAIKRRGDFEMDVVAMVNDTVATMISCYYEDHQCEVGMIVGTGCNACYMEEMQNVELVEGDEGRMCVNTEWGAFGDSGELDEFLLEYDRLVDESSANPGQQLYEKLIGGKYMGELVRLVLLRLVDENLLFHGEASEQLRTRGAFETRFVSQVESDTGDRKQIYNILSTLGLRPSTTDCDIVRRACESVSTRAAHMCSAGLAGVINRMRESRSEDVMRITVGVDGSVYKLHPSFKERFHASVRRLTPSCEITFIESEEGSGRGAALVSAVACKKACMLGQ | 43 mM | 
2 | TcGlcK (Trypanosoma cruzi strain CL Brener) (protein) MNIKELSLHELCEELKTPAWNVPLTFVGDVGGTSARMGFVREGKNDSVHACVTRYSMKRKDITELIEFFNEIIELMPASVIKRVKAGVINVPGPVTGGAVGGPFNNLKGIARLSDYPKALFPPGRSAILNDLEAGGFGVLAVSDAHVFSEYFGVMWEGTQWRTCEQEPAGSVIGRGRCLVLAPGTGLGSSLIYYNPMNQQHIVVPLELGSQTIPMRKDIDYIQTLHAELKLLPNYENMVSGAGLEFHYRQVVRGSRPPCSAGEIAKLASEGDANACKAMKKYHEYLMRVGSEASMALLPLTIVLVGDNIVNNAFFYRNPQNLKEMHREALNHEMERFGFQSRVTYLRQKKLLNLNLMGCYRCGLDLSVGKKQKAQL |  | 0.40 mM
